Measurements: patent publication US20100260805A1 (CIRCASSIA, published 2010)

B1: Fel d 1 peptide EQVAQYKALPVVLENA (peptide)
peptide: EQVAQYKALPVVLENA
notes: said to have been tested in an earlier study
B2: HDM02 (peptide)
peptide: RTVTPIRMQGGCG
B3: HDM23A (peptide)
peptide: DGLEVDVPGIDPNACH
notes: purity 66.7%
B4: HDM26A (peptide)
peptide: DGVLACAIATHAKIR
B5: HDM49 (peptide)
peptide: DTVRAEMTKVLAP
B6: HDM39A (peptide)
peptide: HDDVVSMEYDLAYKL
B7: HDM03C (peptide)
peptide: RNQSLDLAEQELVDCASQH
B8: HDM06 (peptide)
peptide: RYVAREQSCRRPN
B9: HDM20 (peptide)
peptide: CIIHRGKPFQLEA
modifications: not checked
B10: HDM34 (peptide)
peptide: RNIQVRGLKQMKRVG
B11: HDM33 (peptide)
peptide: LDMRNIQVRGLKQ
B12: HDM21A (peptide)
peptide: KPFQLEAVFEANQNTK
B13: HDM21B (peptide)
peptide: RGKPFQLEAVFEANQNT
B14: HDM21 (peptide)
peptide: KPFQLEAVFEANQNT
B15: HDM22A (peptide)
peptide: EAVFEANQNTKTAK
B16: HDM40A (peptide)
peptide: VSMEYDLAYKLGDLH
B17: HDM09A (peptide)
peptide: REALAQTHSAIAVI
B18: HDM48 (peptide)
peptide: TAIFQDTVRAEMTK
B19: HDM01 (peptide)
peptide: IDLRQMRTVTPIR
B20: HDM51 (peptide)
peptide: VDFKGELAMRNIE

Biological target: T1, HLA-DRB1*1501 (human)
T1 construct: human MHC class II allotype
Assay: competitive MHC class II binding assay, high stringency screen; competitor: control peptide Myelin Basic Protein 85-99

Binder | ratio of IC50 to that of the control peptide [ratio]
B1 | 0.97

Biological target: T2, DQA1*0102/DQB1*0602 (human, UniProt P01920 33-230, limits assumed)
T2 construct: human MHC class II allotype
T2 MHC II alpha: not shown
T2 MHC II beta: not shown
Assay: competitive MHC class II binding assay; competitor: control peptide Human Insulin B 1-15

Binder | ratio of IC50 to that of the control peptide [ratio]
B2 | 0.03
B3 | 0.76
B4 | 0.61
B5 | 1.7
B6 | 0.1
B7 | 0.16
B8 | 0.86

Biological target: T3, HLA-DRB1*0701 (human)
T3 chain 1: not shown
T3 chain 2: not shown
Assay: not given

Binder | ratio of IC50 to that of the control peptide
B9 | 1.1

Biological target: T4, HLA-DRB1*1501 (human)
T4 chain 1: not shown
T4 chain 2: not shown
Assay: not given

Binder | ratio of IC50 to that of the control peptide
B9 | 242

Biological target: T5, DQA1*0102/DQB1*0602 (human), P01920
T5 chain 1: not shown
T5 chain 2: not shown
Assay: not given

Binder | ratio of IC50 to that of the control peptide
B9 | 2.37

Biological target: T6, HLA-DRB1*1101 (human)
T6 chain 1: not shown
T6 chain 2: not shown
Assay: not given

Binder | ratio of IC50 to that of the control peptide
B9 | 28

Biological target: T7, HLA-DRB1*1301 (human)
T7 construct: human MHC class II allotype
Assay: competitive MHC class II binding assay; competitor: control peptide HLA-DQB1*0603 21-36

Binder | ratio of IC50 to that of the control peptide [ratio]
B10 | 3.7
B11 | 263

Biological target: T8, HLA-DRB1*0401 (human)
T8 construct: human MHC class II allotype
Assay: competitive MHC class II binding assay; competitor: control peptide Influenza haemagglutinin 307-319;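 note: each peptide was tested for its capacity to displace a known reference binder from human MHC class II allotypes, and its IC50 is expressed relative to that of the reference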

Binder | ratio of IC50 to that of the control peptide [ratio]
B12 | 52.2
B13 | 0.78
B14 | 11.2
B15 | 329
B6 | 76.2

Biological target: T9, HLA-DRB1*0101 (human)
T9 construct: human MHC class II allotype
Assay: as above

Binder | ratio of IC50 to that of the control peptide [ratio]
B12 | 200
B13 | 13.5
B4 | 42.3
B14 | 92

Biological target: T10, HLA-DRB1*0701 (human)
T10 construct: human MHC class II allotype
Assay: as above

Binder | ratio of IC50 to that of the control peptide [ratio]
B11 | 46.5
B16 | 2.29
B17 | 0.49
B18 | 15.7
B4 | 16.3
B6 | 0.71
B19 | 16
B20 | 20.9

Biological target: T11, HLA-DRB1*1101 (human)
T11 construct: human MHC class II allotype
Assay: as above

Binder | ratio of IC50 to that of the control peptide [ratio]
B10 | 3.38
B12 | 10.3
B13 | 4.1
B11 | 41.5
B16 | 6
B17 | 21.1
B18 | 13.6
B14 | 11.7
B15 | 80
B20 | 30.9
B8 | 30.4

Biological target: T1, HLA-DRB1*1501
Assay: competitive MHC class II binding assay; competitor: control peptide Human myelin basic protein 85-99

Binder | ratio of IC50 to that of the control peptide [ratio]
B10 | 769
B17 | 200
B2 | 80
B5 | 671

Biological target: T12, HLA-DRB1*0301 (human)
T12 construct: human MHC class II allotype
Assay: competitive MHC class II binding assay; competitor: control peptide Myco. tuberculosis/leprae hsp 65 2-16

Binder | ratio of IC50 to that of the control peptide [ratio]
B18 | 211
B3 | 347
B19 | 19.2
